From PMC5771688

Tests used:
[1] = target: VE-cadherin (VEC) of VEC-positive cells (VEC-null line reconstituted with VEC wild type cDNA) (UniProt P33151); test: co-IP
[2] = target: β-catenin (endogenous) (mouse (endogenous in mouse ECs)) (UniProt Q02248); test: co-IP
Sequence of UniProt Q02248 (Q02248 whole entry): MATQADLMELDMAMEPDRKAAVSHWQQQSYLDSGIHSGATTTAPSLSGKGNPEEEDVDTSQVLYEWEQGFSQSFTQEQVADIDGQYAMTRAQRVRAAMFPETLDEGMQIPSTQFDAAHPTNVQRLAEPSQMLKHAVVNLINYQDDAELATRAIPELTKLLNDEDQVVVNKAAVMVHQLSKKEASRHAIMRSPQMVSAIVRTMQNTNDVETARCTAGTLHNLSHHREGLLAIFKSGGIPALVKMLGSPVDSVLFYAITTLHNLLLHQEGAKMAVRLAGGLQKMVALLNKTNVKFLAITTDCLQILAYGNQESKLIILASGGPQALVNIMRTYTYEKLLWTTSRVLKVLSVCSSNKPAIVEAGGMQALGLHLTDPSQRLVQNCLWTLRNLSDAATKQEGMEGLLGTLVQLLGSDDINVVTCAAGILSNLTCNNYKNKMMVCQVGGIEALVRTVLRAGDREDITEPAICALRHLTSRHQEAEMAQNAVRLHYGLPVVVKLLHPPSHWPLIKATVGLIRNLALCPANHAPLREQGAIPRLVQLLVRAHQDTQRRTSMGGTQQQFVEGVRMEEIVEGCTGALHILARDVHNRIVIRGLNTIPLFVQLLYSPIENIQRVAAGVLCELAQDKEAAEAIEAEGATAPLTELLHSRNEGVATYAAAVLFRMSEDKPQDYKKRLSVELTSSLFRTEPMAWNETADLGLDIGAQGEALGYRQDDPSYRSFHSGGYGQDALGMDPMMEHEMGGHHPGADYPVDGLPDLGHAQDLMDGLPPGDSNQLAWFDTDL

Sequence of UniProt P33151 (P33151 48-784): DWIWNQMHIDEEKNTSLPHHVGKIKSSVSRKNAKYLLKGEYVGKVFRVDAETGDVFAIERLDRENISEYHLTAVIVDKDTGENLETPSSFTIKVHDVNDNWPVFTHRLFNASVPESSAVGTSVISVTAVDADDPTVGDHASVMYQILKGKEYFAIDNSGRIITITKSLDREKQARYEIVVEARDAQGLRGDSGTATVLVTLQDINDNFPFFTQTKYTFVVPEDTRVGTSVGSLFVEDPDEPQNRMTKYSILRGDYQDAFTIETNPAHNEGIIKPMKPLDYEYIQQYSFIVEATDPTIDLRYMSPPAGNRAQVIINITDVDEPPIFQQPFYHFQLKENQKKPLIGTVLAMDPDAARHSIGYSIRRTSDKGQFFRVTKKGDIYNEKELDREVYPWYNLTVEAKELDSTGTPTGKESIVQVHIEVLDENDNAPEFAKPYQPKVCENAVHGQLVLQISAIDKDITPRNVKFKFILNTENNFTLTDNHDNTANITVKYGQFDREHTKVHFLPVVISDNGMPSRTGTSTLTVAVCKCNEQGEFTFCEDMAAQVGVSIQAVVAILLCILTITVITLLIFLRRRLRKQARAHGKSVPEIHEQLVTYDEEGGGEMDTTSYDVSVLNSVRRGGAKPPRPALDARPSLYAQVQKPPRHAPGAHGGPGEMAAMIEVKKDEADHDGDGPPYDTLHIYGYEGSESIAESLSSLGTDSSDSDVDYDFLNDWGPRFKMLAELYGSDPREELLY

Q: How did the percent reduction of VEC/Ezh2 association [1] turn out when “TAT-M10 (Ezh2 peptide M10 synthesized in tandem with TAT of human immunodeficiency virus) (from UniProt Q61188 454-473)” was run?
A: Its percent reduction of VEC/Ezh2 association is 45.3%.

Q: How did the percent reduction of VEC/Ezh2 association [2] turn out when “TAT-P30 (Ezh2 peptide P30 synthesized in tandem with TAT of human immunodeficiency virus) (from UniProt Q61188 585-604)” was run?
A: The percent reduction of VEC/Ezh2 association was 28%.
